Values of other authors in publication PMC5372734.
Where two headings read alike, the source gives them in different places.

Key:
[1] = biological target: Factor XIIa (Homo sapiens) (UniProt P00748)
[2] = biological target: Factor XIIa (Homo sapiens) (UniProt P00748); remark: listed apart in the source

Chain of UniProt P00748 (P00748 whole entry, looked up): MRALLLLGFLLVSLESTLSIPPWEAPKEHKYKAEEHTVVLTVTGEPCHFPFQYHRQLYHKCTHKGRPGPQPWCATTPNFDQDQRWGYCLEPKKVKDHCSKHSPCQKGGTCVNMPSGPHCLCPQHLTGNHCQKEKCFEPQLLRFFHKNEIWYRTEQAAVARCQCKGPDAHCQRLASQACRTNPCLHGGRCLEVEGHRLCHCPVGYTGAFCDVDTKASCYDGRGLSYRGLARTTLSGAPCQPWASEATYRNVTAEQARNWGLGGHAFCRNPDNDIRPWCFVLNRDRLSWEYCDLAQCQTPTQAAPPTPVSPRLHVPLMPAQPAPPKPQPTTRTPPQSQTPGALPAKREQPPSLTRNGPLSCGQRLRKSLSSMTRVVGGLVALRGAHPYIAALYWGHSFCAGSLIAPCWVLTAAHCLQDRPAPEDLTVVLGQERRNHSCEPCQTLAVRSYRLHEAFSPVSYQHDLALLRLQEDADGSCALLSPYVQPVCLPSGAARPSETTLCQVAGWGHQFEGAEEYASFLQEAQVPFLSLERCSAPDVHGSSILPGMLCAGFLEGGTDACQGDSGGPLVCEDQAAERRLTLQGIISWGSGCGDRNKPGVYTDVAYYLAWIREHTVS

## Histidine-rich glycoprotein (from UniProt P04196)
[1]
  Kd: 0.009 nM
[2]
  Kd: 1.6 nM
